According to patent US20150198603A1 (TORAY INDUSTRIES, published 2015):

Experiments:
[1] = biological target: T1, human CAPRIN-1 as expressed on human breast cancer cell line MDA-MB-231V and in human cancer tissues (human, UniProt Q14444 2-709); assay: flow cytometry on MDA-MB-231V cells expressing CAPRIN-1
T1 construct: whole, on cells; Endogenous protein on cells (flow cytometry) or in paraffin tissue sections (immunohistochemistry); also called CAPRIN-1 on the surface of breast cancer cells; CAPRIN-1 in the breast cancer tissues
T1 sequence (looked up): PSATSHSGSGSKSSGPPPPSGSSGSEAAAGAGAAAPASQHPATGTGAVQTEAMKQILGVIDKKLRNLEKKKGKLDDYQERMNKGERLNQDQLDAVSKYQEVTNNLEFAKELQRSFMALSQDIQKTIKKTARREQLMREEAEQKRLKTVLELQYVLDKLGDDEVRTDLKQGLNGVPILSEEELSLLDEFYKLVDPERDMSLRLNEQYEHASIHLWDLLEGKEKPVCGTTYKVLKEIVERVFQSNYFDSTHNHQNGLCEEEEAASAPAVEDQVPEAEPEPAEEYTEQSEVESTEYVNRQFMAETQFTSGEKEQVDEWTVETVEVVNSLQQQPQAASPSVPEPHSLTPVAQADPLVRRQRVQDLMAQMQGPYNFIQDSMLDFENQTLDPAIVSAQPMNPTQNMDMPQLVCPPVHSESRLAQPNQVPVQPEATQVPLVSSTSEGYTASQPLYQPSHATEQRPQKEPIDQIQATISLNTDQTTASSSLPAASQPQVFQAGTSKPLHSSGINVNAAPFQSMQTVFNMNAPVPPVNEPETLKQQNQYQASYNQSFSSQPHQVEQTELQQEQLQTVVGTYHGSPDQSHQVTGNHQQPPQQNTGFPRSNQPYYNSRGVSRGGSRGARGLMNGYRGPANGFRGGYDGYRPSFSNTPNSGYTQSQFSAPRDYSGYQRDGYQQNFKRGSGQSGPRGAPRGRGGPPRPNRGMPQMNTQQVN
Procedure: Next, these monoclonal antibodies were screened for antibodies reactive with the surface of breast cancer cells expressing CAPRIN-1. Specifically, 5×10⁵ cells of a human breast cancer cell line MDA-MB-231V were centrifuged in a 1.5-mL microcentrifuge tube. 100 μL of the culture supernatant of each hybridoma obtained above was added thereto and left standing for 1 hour on ice. After washing with PBS, FITC-labeled goat anti-chicken IgG (H+L) antibodies (SouthernBiotech) diluted 30-fold with PBS containing 0.1% FBS were added thereto and left standing for 1 hour on ice. After washing with PBS, the fluorescence intensity was measured using FACSCalibur (Becton, Dickinson and Company). On the other hand, the same operation as above was performed using a medium for hybridoma culture to prepare a control sample. As a result, 1 monoclonal antibody (chicken anti-human CAPRIN-1 monoclonal antibody #11) having stronger fluorescence intensity than that of the control, i.e., reactive with the surface of breast cancer cells expressing CAPRIN-1, was selected.

[2] = biological target: T2, peptide consisting of the amino acid sequence shown in SEQ ID NO: 66 (partial CAPRIN-1 sequence) (human); assay: told from the digestion and MS/MS experiment done with #12
T2 peptide: QQPQAASPSVPE
Procedure: The cancer cell surface-reactive mouse-chicken chimeric anti-human CAPRIN-1 monoclonal antibody #12 obtained in the paragraph (4) was used to identify a CAPRIN-1 epitope region recognized thereby. 100 μg of recombinant CAPRIN-1 proteins was dissolved in a […] dissolving buffer and reacted with the monoclonal antibody #12. To this solution, a digestive enzyme trypsin or chymotrypsin was added, followed by digestion reaction at a proper temperature. After the reaction, a protein G Sepharose carrier was added thereto, then reacted, and precipitated by centrifugation operation. After removal of the supernatant, the carrier was washed with a dissolving buffer and PBS and dissolved in 0.1% formic acid, and the supernatant was recovered. The recovered supernatant sample was applied to a reverse-phase column (HLB Extraction Cartridge (Waters-OASIS)) to obtain an antibody-free sample solution. The obtained sample was subjected to reverse-phase liquid chromatography (Chromatography Nanosytem (KYA Technologies Corp.)) to recover a solution containing only peptides. The solution was introduced to a tandem-type mass spectrometer Quadrupole-TOF Mass Spectrometer (Waters-MicroMass) and analyzed by MS/MS to detect the peptides contained in the sample. […]

[3] = biological target: T3, human CAPRIN-1 having the amino acid sequence shown in SEQ ID NO: 2 (recombinant, as prepared in Example 3 of … (human, UniProt Q14444 1-709)); assay: ELISA, plate coated with 1 µg/mL CAPRIN-1, hybridoma supernatant
T3 construct: limits and tags of the recombinant construct are described only in WO2010/016526; also called recombinant CAPRIN-1; CAPRIN-1 solution
T3 sequence: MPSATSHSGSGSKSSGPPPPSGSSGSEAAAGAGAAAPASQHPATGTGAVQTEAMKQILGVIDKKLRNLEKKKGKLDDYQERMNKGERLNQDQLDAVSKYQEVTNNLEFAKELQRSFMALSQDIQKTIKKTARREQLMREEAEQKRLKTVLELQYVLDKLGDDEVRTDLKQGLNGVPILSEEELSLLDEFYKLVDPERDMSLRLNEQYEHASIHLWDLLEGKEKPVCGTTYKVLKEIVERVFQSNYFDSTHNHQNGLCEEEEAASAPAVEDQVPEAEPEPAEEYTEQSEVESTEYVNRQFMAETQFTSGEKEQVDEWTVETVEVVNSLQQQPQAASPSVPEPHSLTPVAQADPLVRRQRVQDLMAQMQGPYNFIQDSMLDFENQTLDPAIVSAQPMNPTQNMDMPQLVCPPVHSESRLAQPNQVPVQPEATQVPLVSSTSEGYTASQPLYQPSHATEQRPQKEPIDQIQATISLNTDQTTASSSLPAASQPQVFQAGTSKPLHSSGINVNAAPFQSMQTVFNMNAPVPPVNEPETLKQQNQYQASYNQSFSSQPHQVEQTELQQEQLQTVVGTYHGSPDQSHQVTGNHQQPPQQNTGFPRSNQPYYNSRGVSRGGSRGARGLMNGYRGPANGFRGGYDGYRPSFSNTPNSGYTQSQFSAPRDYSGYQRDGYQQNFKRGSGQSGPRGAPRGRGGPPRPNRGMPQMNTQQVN
Procedure: The prepared hybridomas were screened with the binding affinity of antibodies produced by the hybridomas against CAPRIN-1 as an indicator. The 1 μg/mL CAPRIN-1 solution was added to a 96-well plate at 100 μL/well and left standing at 4° C. for 18 hours. Each well was washed three times with PBS-T. Then, a 0.5% bovine serum albumin (BSA) solution (Sigma-Aldrich Corp.) was added thereto at 400 μL/well and left standing at room temperature for 3 hours. The solution in each well was discarded, and each well was washed three times with 400 μL of PBS-T. Then, the culture supernatant of each hybridoma obtained above was added thereto at 100 μL/well and left standing at room temperature for 2 hours. Each well was washed three times with PBS-T. Then, HRP-labeled anti-chicken IgY antibodies (Sigma-Aldrich Corp.) diluted 5000-fold with PBS were added thereto at 100 μL/well and left standing at room temperature for 1 hour. Each well was washed three times with PBS-T. Then, a TMB substrate solution (Thermo Fisher Scientific Inc.) was added thereto at 100 μL/well and left standing for 15 to 30 minutes to cause color reaction. […] The absorbance was measured at 450 nm and 595 nm using an absorption spectrometer. As a result, several hybridomas producing antibodies having high absorbance were selected as candidate lines of the hybridoma of interest.

Measured: binding result

B1: chicken anti-human CAPRIN-1 monoclonal antibody #11 (antibody, V domains shown)
VH: AVTLDESGGGLQMSRGGLSLVCKASGFDFSSYQMNWIRQAPGKGLEFVAAINKFGNSTGHGAAVKGRVTISRDNGQSTVRLQLNNLRAEDTAIYFCTKHAYGYCGSGTWCAAGEIDAWGHGTEVIVSS
VL: QAASTQPSSVSANPGETVEITCSGGGSYSYGWFQQKSPGSAPVTVIYYNNKRPSDIPSRFSGSKSGSTGTLTITGVQADDEAVYYCGSGDSTDTAVFGAGTTLTVLG
notes: Chicken hybridoma antibody; also called chicken monoclonal antibody #11
binds: all assays above
